Tests used:
[1] = biological target: T1, human TNFα in complex with compound (2) (human, UniProt P01375 77-233); test: SPR BIAcore, compound-bound against apo TNFα
T1 construct: also called human TNFα + compound (2)

[2] = biological target: T2, human TNFα in complex with compound (1) (human, UniProt P01375 77-233); test: SPR BIAcore, compound-bound against apo TNFα
T2 construct: also called human TNFα + compound (1); TNFα-compound (1) complex
T2 sequence (P01375 77-233 limits assumed, one chain of several): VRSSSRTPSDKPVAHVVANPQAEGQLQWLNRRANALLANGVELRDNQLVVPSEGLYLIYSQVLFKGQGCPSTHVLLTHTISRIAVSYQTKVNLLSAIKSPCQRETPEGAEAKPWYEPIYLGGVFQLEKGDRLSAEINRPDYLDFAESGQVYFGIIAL

T1 sequence (P01375 77-233 limits assumed, one chain of several): as above

- log selective binding against apo human TNFα [1]: > 2 log
- log selective binding against apo human TNFα [2]: > 2 log
B1: CA185_01979 mouse IgG1 (mIgG1, kappa) (antibody, V domains shown)
VH: EVHLVESGPGLVKPSQSLSLTCSVTGYSITNSYWDWIRKFPGNKMEWMGYINYSGSTGYNPSLKSRISISRDTSNNQFFLQLNSITTEDTATYYCARGTYGYNAYHFDYWGRGVMVTVSS
VL: DIQMTQSPASLSASLEEIVTITCQASQDIGNWLSWYQQKPGKSPHLLIYGTTSLADGVPSRFSGSRSGTQYSLKISGLQVADIGIYVCLQAYSTPFTFGSGTKLEIKR
notes: also called CA185_01979.0; VR0001842
